Here are results for 18 sequences from a protein production outcome set (Wang et al. 2014).

A short description of the data set: label from the status in PepcDB records.
For “MLRQIRRNALSNFLSLWNEAATTSLGFFWMALWAFILGYVISSLIQVLVTRRKMQQAMGEDGPRSIALGTFFGFISSSCSFSALATTRAIFNKGAGLAPSLAFMLASTNLVIELGIVIAVFLGWQFVVGEYVGGVLLILVTWLLIRLTRPRRLEAQARRKMDDGDGDGGNSDKSWKEKITSKEGWQAIAQTYVMEWQMVWKDVLIGFTVAGIISAMVPQSFFEALFIGAGGENAANPGFLAVLSQTLVGPIAAFFTFIGSMGNIPLAAVLFAQGVSFAGVMAFIFSDLVVLPVLRINASYYGWKMALYILALMLVGIVTVSLLMHYSLALLGMLPDFSGQTSMGEREFFKWNYQAVLNILFLTATAILLWFWRQGQKQHSHDHHHHDHDHGGSSLTDKVLSVLVVVALLWLAGGVVVPLF”, the protein production entry is “failed”. The entry for “MTTIPSTAEAKLEMLTTINRAIAGSRPEALPPYPVPAPLSRAEILHQFEDRILDYGAAYTHVSAAELPGAIAKALGNARRVIVPAGIPAPWLTVGMDVLRDEPPLSHAELDRADAVLTGCAVAISETGTIILDHRADQGRRALSLIPDFHICVVREDQIVQTVREGVEAVAASVREGRPLTWLSGGSATSDIELVRVEGVHGPRRLQVIVVG” is “not failed”. The entry for “MRFSFLPIVILMMPILEIAGFIIVGKAIGLWLTLALILFTSFLGLLILRLGGVGMVRNLQAAGRTGAQPADELVNGAMRVVAGILLIIPGFITDILGLLLLSPAIRRFFWKAFGPRVVVSGSFRQSGPQQGDYSGFRNGPGPAGNSKVVDLDEEEFHREGSKDSPWSNRPDDRDLPKP” is “failed”; for “MRITLVTDSTSDLPQDLRGRLGVRVVPLYVNLSGAIYRDWEEITPTEIFQKVREGAAFPTTSQPSPEDFARVYREALEEADHVLSLHISGKLSGTVQSAELAAQEFPGRVTVVDTQAASLGVGMMVLRAKELLEEGQSLEAVLAELERLRRDHFVRFSVATLEFLKRGGRIGGAQAFLGTLLNLKPVLTLKEGRVEAAGRARGEKKAREEILKAFRAWAEGRKRIRAYFLYSGDEDAVAALRQEVLASGLPVEEALVNELGAVIASHTGPGTYGFYAYSL” it is “not failed”.

In the case of “MNKFLRVLFILVILAMTDAIIFQLFFPTYMGSHSGYGISVGWQREIGIWNVTVLVILITVNLKYDWFYLRAVLMALIIGGLGIGTNHFLSYLQYRHSVNAIGALENYLLVLGWIIGWWLENSSRKRV”, the protein production entry is “failed”. With “MLLISKKSALAAASTTLFVLLWSSGAIFSKWGLAHASPFAFLLLRFVIALIGLMLLAPLLKLRLPRGRRAMGFAVATGLVLLGAYQIFYILALDLKVTPGVMATIMGVQPILTVVLMERQRSWSRLFGLSLGLAGLVMVVYQSIGLAGMSITGMLCGLLALVSMTAGSIMQKRITDNPLGTLPVQYLAGLLLCALFVPFQPFHFEHSAGFVIPLLWMGLVVSVLATLLLYRLIAQGNLVNVTSLFYLVPAVTALMDYLFFGNRLGLLSLVGMGLIIVGLVFVFRKQP”, the protein production result is “not failed”. The result for “MKKKLFSPIWLLPIVALALGAWLGIKSIKESGVEIQIHFPSATGIDVGKTLVKYQGLTVGKVKDIGIDDDLKGVNVKVMMDYRAKPFLNKETLFWLVTPKASITGVEGLDALFSGNYIAIQPGKGNAATFFEAERQPPPMQIGSEGVMIELTADKLGSLDVGSPVFFRQIPVGSVVSYRLDGNARVIISAFIQEQYARLVKKNSHFWNVSGVKVDASLAGIKVNTESLASILAGGVSFSSDEKAAAAQNGDSFALYDSETSALGGVEVSLTMNDGNGIDKGTRIVYRGISVGSIQSKNLTTTGVTAIAKFEPEYANLLTSDGRFWLEGADISLSGIKNPERLLTGSVINFLPGTNANTALPSSFALQSSAPDLLQAKKRLLTITSAENMGLTAGAEVRYKQLPIGQVLAVKLTKDLSAVEYQLELQPEFASLVRSDSYFIPESALSVDASIEGVSVKTRDLATLTKGAVSLIPGSNNTPVAANARLSLFSSVEEAKQFFERQQRLYFTLTSQDGADVSQGSPIYYKKMQIGRVESVNWQSKTEDFAIKIAIDKQFQPLMQKPKVFWRNSALDVSASLAGIDVAVAPLQGALKGSISLGLLENPLADPTASLKLYENKQLALAQAQAIRLTLSASAKLAAKAAIRYQGHQVGEVTQVKLNADLNTLSATAYLYGEYADHFSSSDAEYHMVEAQISLAGIKAPETLITGPYIGVLPGKSKQKATQFQAKLVESSYANVAEDALKFTLEDSNLGSMKVGTPIFFRGLKVGQIDGYSLSSQGNSVLMQAHIEPQYRHLVNKTSQFWDASGIKVDVGIFSGAQIEAGSLETLLAGGINVATKETTQANNRLSQGAVITLQHKAQTEWQEWAPAQ” reads “failed”; that for “MSILTIILIVLLVILLFKVGLSILRFLISVGIVLLCIYLGYQGVLWLFEHFQNFSGFIQ”, “failed”; that for “MSKVLVLKSSILAGYSQSGQLTDYFIEQWREKHVADEITVRDLAANPVPVLDGELVGAMRPGDAPLTPRQQDALALSDELIAELKAHDVIVIAAPMYNFNIPTQLKNYFDLIARAGITFRYTEKGPEGLVTGKRAVVLSSRGGIHKDTPTDLIAPYLKVFLGFIGITDVNFVFAEGIAYGPEVAAKAQADAKAAIDSVVAA”, “not failed”.

Turning to “ELTIPKGAVSEIVTLSETFNQMAALLAEREQAILDSRGNRFARLIDGMSDKSFYCSLDPDGQLAQVSEGVTKVLGIPPELLKRKYQRLFSANPLNEKNWEYTDLALKGQNVPPHQIELVDAKGQARRLDVFMQPLVSDT”, the protein production entry is reported as “failed”. In the case of “EPTFVVAQIKEIIDHPDSDHLHICQAEINDGKTVQIVCGAPNASVGLKTVAALPGAMMPNGSLIFPGKLRGEDSFGMLCSARELALPNAPQVRGIIELSDQVIVGESFDANK”, the protein production entry is recorded as “failed”. The entry for “SADEAPSSADEAPSSAVEQIVAPVDFSDLTEVALRHVAQIAPLYDVPVTLVHVVEDPTMPSVYEVNASAVRARAAEQRAEEALQSLGAPIEETGVSVSYLVHRGQTTSTVVEATGHRDTLTVMGTKGLSGLRRVMLGSVTEAVIRASDGPVLAVPASAQEASPANE” is “failed”. With “MSDRLGIFFSGLCFVHCLATPILLIFLGTNSLASVLETPLFHRLLLLPVLTMAIFQGYYAWKNPQAKLSRVLLPLGCLAVVIAQFFHGPIEILLTIIGSLTLISGHFFHLKHEHCADQN”, the protein production entry is recorded as “failed”.

As to “DAALCAFDADGVVTHWNREAERILGWTAAEAVGRRGFAGWAVRTADAEDVEARLMTAMQAPGRQVHEFALLTKDGGRVLVRTQSAAVHGPDGKPAGVYCAFSEVH”, the protein production result is “not failed”. The entry for “MSQPRNRWIVQLILALAVLAFVGVSVVPIIGALNDNTSPSNQNSASNQGDSLASNQQSKLADEVRGYELVLQREPENQTALKGLLQARLQLLALKQGNVQSVIEPLEKLAKLNPNQSEYGVLLAQAKQQIGDKEGAATAYRSILDTKPGDLKALQGMVVLLLDQQRPEAAVGLLQDTLTNAAQANTIQPGSVDVVAVQVLLGNVHAAQKRYPQAISAFDQAIQKDTKDFRPVLAKAMLLKQQGKATEAKPLFDSALALAPAQYKDEINKAATVSPAPAPPAPPAPTPESTPKQ” is “failed”; for “MEAVVVEREAKGMKEIAIQEKDLTLQWRGNTGKLVKVRLKNTRAMEMWYNKQITEENIQEITTLNIIKNGKSLALEVYPEKSIYVKPNLGRINVPVFFIKTPINRGVFEEIFGETLKA” it is “not failed”; for “MKKLTVYLATTNPHKVEEIKMIAPEWMEILPSPEKIEVVEDGETFLENSVKKAVVYGKKLKHPVMADDSGLVIYSLGGFPGVMSARFMEEHSYKEKMRTILKMLEGKDRRAAFVCSATFFDPVENTLISVEDRVEGRIANEIRGTGGFGYDPFFIPDGYDKTFGEIPHLKEKISHRSKAFRKLFSVLEKILESENR” it is “not failed”.

On to “MTPIQDHPLRFALANELHARPFPISRAPCTVAYLAVKQPDAAVGRDRKADRAHLIDLLDRHGAPHPQPGATHYAGQIGRHWLKWESHTEFVTYTAFATGVSDRPFNPADFEVFPPDWLAAAPGQRVTSALLRVEEQLPEADIVAALADWFVPESLAVAHVLDRAAVAAGDFRIDPAGHMRFAVFVAPDTGERRIGRIIQRLCEIETYKAMSMLGFARVKALGPKLGELDSGLTGLMVKMTDGGHPAEDLLPQLLSTSAELETMAARSEFRLGATGAYEAIVNQRIASLREERFGGRQTFADFMLRRYEPAMRTVKSTERRLKRLSDRAIRAGDLLRTRVDVERSAQNQALLESMDRRADLALRLQHTVEGLSVVAVSYYAVSLVSAFLLPLSEWYGVDKKALIALVTLPVVGLVWLGIRRIRKKLH”, for which the protein production entry is listed as “failed”.
